Here are results for 46 sequences from the supplement of paper PMC12764529.

The nature of data set [1]: folding stability dG unfold from chymotrypsin proteolysis; higher = more stable. The procedure:
(§1)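 Folding stability of de novo designed mini-proteins (<80 aa, no Cys; designed by TrROS, TrMRF, ProteinMPNN and the joint model) was measured by cDNA display proteolysis with trypsin and chymotrypsin. Each protease was used at 11 concentrations in a threefold dilution series plus a no-protease condition. K50 was inferred by Bayesian fitting of sequencing counts, and dG unfold was derived against a sequence-predicted unfolded-state K50 (Tsuboyama et al. method). Sequences shown include variable-length N-terminal GS-type padding (SAGGSAGG...) inside a display construct carrying a PA tag. Rows were kept only if the AF2 dimer inter-PAE was >15, to exclude likely homo-oligomers.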

Data set [2] can be described thus: folding stability dG unfold (combined trypsin and chymotrypsin); higher = more stable. The procedure: as §1

± gives the half width of the 95% confidence interval. Where only a bound is given, the exact number is not on record here.

On to “KDFGITFKSPETIEEIAKKLGPNVVPTDIKKDPKGYVYAKIPTPDGKETDIVIPADKYSYEEAVKFAKEAES [r1_279_TrMRF]”, for which the “folding stability dG unfold” value was 0.228 ± 0.16 kcal/mol in data set [1] and -0.232 ± 0.13 kcal/mol in data set [2].
Taken in the same sequence, the figures for “MKITVTITSLGDKYTMTAEIELPDGTVETITKEFDSPEEAKKYIEKLVKELPPGLVEIEEIKFNPPDGTADS [r1_169_JUSTAS]” were 4.94 ± 0.6 kcal/mol and more than 6 kcal/mol.
As to “MTEKEIKEKAEEIAKKIAEEKGTEIKSAKIGGYVNVPVKVKEKLDENGKPVFEFEGKKVKVKVEVELKKKKS [r1_91_TrMRF]”, the figures for the “folding stability dG unfold” value in data set [1] and in data set [2] were 0.567 ± 0.33 kcal/mol and less than -1 kcal/mol, respectively.
In the same order, the values of “SADPADVDVPLPVVGTAPALTSAPPGARLELVRLPDLGALARVDDGSVVALTVVVNDDGEVLAVAVEPAPSA [r9_1195_TrMRF]” are 0.894 ± 0.028 kcal/mol and 0.252 ± 0.066 kcal/mol.
For “SADPALEAEARARARAEARARGVERLEFELTREVTRESLVRFPGGELREVVERREVRYRVEVEVPPEAASAG [r14_232_JUSTAS]”, the “folding stability dG unfold” value in data set [1] came to 0.963 ± 0.077 kcal/mol; in data set [2], 0.366 ± 0.099 kcal/mol.
With “SADWLSVPFELLEEKPPPADKPLPEGSSAEVVVEDPLRPGEPIKLEVFYFPEKGILILRYEGKEIEIKVGSA [r9_243_JUSTAS]”, the “folding stability dG unfold” value in data set [1] was 0.673 ± 0.49 kcal/mol.
“SAEKVTLTITVKMTEEELKEIAEKVGMKVEITVEKEEDGLYRVTLTFETPEEAEKAREALEKAGYKVEPSAG [r14_745_TrROS_Hall]”: the “folding stability dG unfold” value in data set [1] is 4.57 ± 0.14 kcal/mol; in data set [2], 4.6 ± 0.16 kcal/mol.
For the sequence “SAGDKYRIKMTNPNGKKIEFEIPPNGYIKVRIRNPNNEHEMTIPIPPGETIEEALDNFPPYKISEIEPVSAG [r5_259_TrROS]”, the “folding stability dG unfold” value in data set [1] came to 0.795 ± 0.1 kcal/mol; in data set [2] it was 0.328 ± 0.082 kcal/mol.
As for “SAGEPNKIKVKVKIRMWMPRKDPDGQQAEPHPMPMTFEYKAPWEDAKNIIDSMPPGMQIDKIDKIEPLSAGG [r19_114_TrROS]”, the figures for the “folding stability dG unfold” value in data set [1] and in data set [2] were 0.226 ± 0.3 kcal/mol and 0.109 ± 0.29 kcal/mol, respectively.
As for “SAGESTLELTETSFPDGTTARVTTTRYPGLVRREATVTLPDGTVERLSAEVTLDEDEEVVTTSRSPLPSAGG [r19_385_JUSTAS]”, the “folding stability dG unfold” value in data set [1] is -0.247 ± 0.13 kcal/mol; in data set [2] it was -0.666 ± 0.45 kcal/mol.
“SAGGAPAAGDVVETETLRLERDEPDTITLTRLRTVEVVLPDGRVLTRTESETVRLEATDEEAVELAESSAGG [r13_544_TrMRF]”: the entries for the “folding stability dG unfold” value in data set [1] and in data set [2] were 0.883 ± 0.22 kcal/mol and 0.397 ± 0.14 kcal/mol, respectively.
Taken in the same sequence, the figures for “SAGGDPALLLPVERKVTIEYTDEDGKKFTVGDVTVLPSPEILVKIPGTGETIRVPPSVVKKVEEVPESAGGS [r8_410_JUSTAS]” were -0.455 ± 0.18 kcal/mol and less than -1 kcal/mol.
In the case of “SAGGDYDYEKDPNKYRVKERDKNGKILGEKEVEVKPPPIVIDGLPEEDLQEFQDKFPNIPITINPGAISAGG [r13_235_TrROS]”, the figures for the “folding stability dG unfold” value in data set [1] and in data set [2] were -0.271 ± 0.5 kcal/mol and less than -1 kcal/mol, respectively.
Turning to “SAGGEDFTIRTRSPNGEEQKFPFKVDNVEIEPENNHYSIHIKDGKKLTIPPGGIDDIEPDDIKDWIKDSAGG [r13_925_TrROS]”, the “folding stability dG unfold” value in data set [1] is -0.0875 ± 0.29 kcal/mol; in data set [2], -0.373 ± 0.21 kcal/mol.
On to “SAGGEELVIEFDSLEDALSAIYPRPDLDKVTLVVPGEGVPVVIPVTVTPPDLGVLGRSAEDRPVPLLGSAGG [r13_183_TrMRF]”, for which the “folding stability dG unfold” value was -0.825 ± 0.2 kcal/mol in data set [1] and less than -1 kcal/mol in data set [2].
In the same order, the values of “SAGGEIKIVVSAEELLRKEGKLSEEQRKKLEEALEEAKKLAEEGKEVKVEVEVVPPKPELKPEDKEKKSAGG [r13_731_TrROS_Hall]” are 0.214 ± 0.086 kcal/mol and less than -1 kcal/mol.
In the same order, the values of “SAGGEITIVIEGMSEEEREKALEEVRNKIKELKEKHPEKKITIVVDTPEAKKVAEELKKEGYEVEILSAGGS [r16_450_TrROS_Hall]” are 2.06 ± 0.15 kcal/mol and 2.86 ± 0.43 kcal/mol.
In the same order, the values of “SAGGGENAPKPIVEPKLVSTFLIDVEPDTYTPEEIAELFKEATGYEIEEVEVEELPDDNTVLVTVVAGSAGG [r13_457_TrMRF]” are 0.472 ± 0.24 kcal/mol and 0.0888 ± 0.22 kcal/mol.
Consider “SAGGGLARELFEAENLPVVVEEEERDGKPVLRLVVDAGDKPLVFESDGEDVERAVREAARELGLPGLSAGGS [r8_226_TrMRF]”, for which the “folding stability dG unfold” value in data set [1] came to 0.674 ± 0.085 kcal/mol; in data set [2] it was 0.337 ± 0.15 kcal/mol.
Taken in the same sequence, the figures for “SAGGGMPLEELKDIPENLPPGARVRLRFPETGEEGVYVLREDGGYTVEVPGGVVEAPEDTEVTEIVPSAGGS [r8_162_TrMRF]” were 0.414 ± 0.13 kcal/mol and -0.192 ± 0.17 kcal/mol.
Taken in the same sequence, the figures for “SAGGGMPVPEVEVELLEEREVPGGRVTLGRAKTPDAWETLTTEYDPATGRRRTWRETPEGVTPYAEEGSAGG [r13_445_JUSTAS]” were -0.567 ± 0.65 kcal/mol and less than -1 kcal/mol.
Regarding “SAGGGNPPVLKIELTKTYHPPDGTKVELYRVEHPVEPREIYIVKTYPDDGAEEVKIVKEEELKEALKSAGGS [r8_421_JUSTAS]”, the “folding stability dG unfold” value is 0.771 ± 0.36 kcal/mol in data set [1] and less than -1 kcal/mol in data set [2].
Taken in the same sequence, the figures for “SAGGGPGSVSPQPFEEDYTLPDPGEKIRVKVTAYTLPDGSVVERAVSPEPEREFVFTRDGETVTVTPESAGG [r13_117_JUSTAS]” were 0.612 ± 0.088 kcal/mol and 0.116 ± 0.12 kcal/mol.
Taken in the same sequence, the figures for “SAGGGRMIKLTFKSGETKTIPLSSDYPDAKVEVSEKDDKLYITVTYPNGEKITYEFPLSEVESIEILSAGGS [r16_658_JUSTAS]” were 4.526 ± 0.042 kcal/mol and 4.7 ± 0.1 kcal/mol.
Taken in the same sequence, the figures for “SAGGGSSSSSIATETFTKEVEVPTEDGKLKKVLVTTTVSRPISLEPKTGKKYSLSTTVTTTTVSPEELSAGG [r13_312_JUSTAS]” were -0.461 ± 0.58 kcal/mol and less than -1 kcal/mol.
As for “SAGGSAGGSMYYLIKTKPPDGKEEYIIDPLPPGGSIEDIIPEDLEIEEIKPFKSKEEAEKYLKSAGGSAGGS [r20_18_JUSTAS]”, in data set [1], the “folding stability dG unfold” value is 0.516 ± 0.46 kcal/mol.
Still for that read-out and setting: to “SAGMTVEEAAKEAIEKIPPTTKEVEFEIDLGEKPLIVKIENIPDPETNKPIPKVIVEDPDEPKKVEFEISAG [r5_236_TrMRF]” belongs 0.104 ± 0.13 kcal/mol.
With “SAGSASPVVLKLTDPSSDKTYLVEVEVPEEEATWTLRDPSNGKEVEKVKMTLEELYAELKKKGLNPEPLSAG [r5_291_JUSTAS]”, the “folding stability dG unfold” value in data set [2] was less than -1 kcal/mol.
On to “SAGSPADVVPLEIPFVTEDGSRVRATLLYDPATGEVTVPIETEDPALGRRAAAFARRLAEELGAPDVRPSAG [r5_99_TrMRF]”, for which, in data set [2], the “folding stability dG unfold” value is less than -1 kcal/mol.
The same measure, in the same setting: the figure for “SAGYELKILKAEVKDGEIDIPILHPDGRPSTARIKVELVEGEDGIPRPVLKIEIPEEELKNSIPPELLKSAG [r5_462_TrMRF]” is less than -1 kcal/mol; for “SAMLVVKNKKTKKPIEIKIDPSMTPEEIKKKIEKLPDIPEEQKKEVEEAIELYIKLLENPELAKKFEKESAG [r14_732_TrMRF]” it is less than -1 kcal/mol.
Turning to “SAPDMQITDVEISEVEKNPDGKRTIEIWMRMDNYTYKATFPADKDGKIKKLSMERDPENNWMRHKIEIDSAG [r14_189_TrROS]”, the “folding stability dG unfold” value in data set [1] is 0.283 ± 0.34 kcal/mol.
With “SAPYIRKVTYTTTFYPPDGTPVQSTKPTTEPVDPAEKDTTTTSTTALPDGGSVTTTSTTTVEPAEPALLSAG [r14_268_JUSTAS]”, in data set [2], the “folding stability dG unfold” value is less than -1 kcal/mol.
Consider “SASPLVPVETEVLEEETLPDGTLRILTRRTVGDTTILDVRDRGPGGEILRESSSVDTSSNTTTRDVSVLSAG [r14_189_JUSTAS]”, for which the “folding stability dG unfold” value in data set [2] is less than -1 kcal/mol.
The same measure, in the same setting: the figure for “SGINTEYTVTSVGPAGTPVTTELKTKIGNKEYSLTRTYQDPSGSVRLVNWKITSSPSGSSTISETVSPLPSA [r9_255_JUSTAS]” is less than -1 kcal/mol; for “SGKVVGEKTYPVSDGSEGPAKATRDPDSLTFTITNKKGEVIKTIKVPKNAGVEKVFDIKVSPDEFKGLNLSA [r9_215_JUSTAS]” it is less than -1 kcal/mol.
On the same count and under the same terms, the figure for “SGSMVVVPESDLEAAIATARALVAAGEDTLLFFSPEAREAVQRAVPEVRVEPVPGVPPTPPRPESVARLRSA [r9_639_JUSTAS]” is less than -1 kcal/mol.
The same measure, in the same setting: to “SMELLEAVKKGVKTVTVLLKPGDEEKVKLAAELPVNIVLKASPEISEEVFKKIPGINLTEVKPLSPEELPSA [r9_671_JUSTAS]” belongs less than -1 kcal/mol; to “SMITPEDLEALKAAGVELVSRDPNNRVTLFDPATNTPIELEVEEVPPPPPVTFPGNGPSVEERRAWLERRSA [r9_649_JUSTAS]”, less than -1 kcal/mol; to “SMTIEELLKKHPNLSAEELAKLIADELKKKLPPGAKITVTVEEKDGKLVLKVEVEVNGKKITIELEIELKSA [r9_805_TrROS_Hall]”, more than 6 kcal/mol.
On to “SMTITLEKTLPDGSKVTITIPITKVPGKPLYKATVTVTTTKPGGTPSSKTYTFDFTSEEEAVEKAKEILASA [r9_337_JUSTAS]”, for which the “folding stability dG unfold” value in data set [2] is more than 6 kcal/mol.
For the sequence “SPPYRATVEMEAPNGEPIGEEEFPIKPGKNLMFMMPAPARVRIEIEDPDEGEPREQEYDPRSGMLHFPLKSA [r9_272_TrROS]”, the “folding stability dG unfold” value in data set [2] was less than -1 kcal/mol.
The same measure, in the same setting: the figure for “SRFRISVQHDGKPIDRAEVQDAIHDLMQESGRPITFEELADELAERPNYSVSIERWNPPGKPKGTRTIRVSA [r9_1045_TrROS]” is less than -1 kcal/mol; for “SSITFPVPKEEKEPDPDGDPHPRREPKPVPIPPDAIRDQIYNMIRTELRDAGLPDMTEEDIDDPEFIDRLSA [r9_263_TrROS]” it is less than -1 kcal/mol; for “SSPPPSITVKSISREPATGTVTIPTSHPSGKHISVEWRSPDGTVTVVPPDKPTATLPAAPDWTLTKISVGSA [r9_113_JUSTAS]” it is less than -1 kcal/mol.
For “SSPVVEAIEAEAAARGLPVEVSVSPDENGNPVVPVRVLTPEVLAAGEPRLAERVRPVTTDGRTVTVRVVASA [r9_489_JUSTAS]”, the “folding stability dG unfold” value in data set [2] was less than -1 kcal/mol.
